Assay results published in the RNAGym collection of RNA variant scans (doi:10.1073/pnas.2313332121).

B1: TPR t1 (parent)
chain: GACCAAUCUGCCCUCAGAGCUCGAGAACAUCUUCGGAUGCAGAGGAGGCAGGCUUCGGUGGCGCGAUAGCGCCAACGUCCUCAACCUCCAAUGCAUCCCACCACAUGAUGAUGCCUGAAGAGCCUUGGUUUUUUG

Variants of: B1
Test: polymerase ribozyme fitness, log enrichment relative to wild type (log ratio); higher = more active; in vitro selection for triplet polymerase activity
Method in brief: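 The heterodimeric triplet polymerase ribozyme's subunits were each mutagenized into PCR-built libraries and transcribed. Every library was selected once, in triplicate, by annealing with a biotinylated primer, the partner subunit and triplets, incubating frozen at −7 °C, gel-excising extended constructs, capturing on streptavidin beads and running RT-PCR. Input and output libraries were Illumina-sequenced, with genotypes kept only at ≥10 input reads and ≥1 read per output. Fitness, from inverse-variance-weighted replicate averages, is the base-2 logarithm of genotype enrichment over wild-type enrichment.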

| Variant | polymerase ribozyme fitness (log ratio) |
| --- | --- |
| GACCAAUCUGCCCUCAGAGCUCGAGAACAUCUUCGGAUGCAGAGGAGGCAGGCUUCGGUGGCGCGAUAGCGCCAACGUCCUCAACCUCCAAUGCAUCCCACCACAUGAUGAUGUCUGAAGAGCCUUAGUUUUUUG | -3.37 |
| GACCAAUCUGCCCUCAGAGCUCGAGAACAUCUUCGGAUGCAGAGGAGGCAGGCUUCGGUGGCGCGAUAGCGCCAACGUCCUCAACCUCCAAUGCAUCCCACCACAUGAUGAUGCGUGAAGAGCCAUGGUUUUUUG | -1.66 |
| GACCAAUCUGCCCUCAGAGCUCGAGAACAUCUUCGGAUGCAGAGGAGGCAGGCUUCGGUGGCGCGAUAGCGCCAACGUCCUCAACCUCCAAUGCAUCCCACCACAUGAUGAUGCUUGUAGAGCCUUGGUUUUUUG | -1.41 |
| GACCAAUCUGCCCUCAGAGCUCGAGAACAUCUUCGGAUGCAGAGGAGGCAGGCUUCGGUGGCGCGAUAGCGCCAACGUCCUCAACCUCCAAUGCAUCCCACCACAUGAUGAUGCCUUAAGAGCAUUGGUUUUUUG | -0.212 |
| GACCAAUCUGCCCUCAGAGCUCGAGAACAUCUUCGGAUGCAGAGGAGGCAGGCUUCGGUGGCGCGAUAGCGCCAACGUCCUCAACCUCCAAUGCAUCCCACCACAUGAUGAUGCCUCAAGAGCCUUGGUUUUUUU | -3.37 |
| GACCAAUCUGCCCUCAGAGCUCGAGAACAUCUUCGGAUGCAGAGGAGGCAGGCUUCGGUGGCGCGAUAGCGCCAACGUCCUCAACCUCCAAUGCAUCCCACCACAUGAUGAUGCCCGAGGAGCCUUGGUUUUUUG | 1.96 |
| GACCAAUCUGCCCUCAGAGCUCGAGAACAUCUUCGGAUGCAGAGGAGGCAGGCUUCGGUGGCGCGAUAGCGCCAACGUCCUCAACCUCCAAUGCAUCCCACCACAUGAUGAUGCCAGAAGUGCCUUGGUUUUUUG | -0.72 |
| GACCAAUCUGCCCUCAGAGCUCGAGAACAUCUUCGGAUGCAGAGGAGGCAGGCUUCGGUGGCGCGAUAGCGCCAACGUCCUCAACCUCCAAUGCAUCCCACCACAUGAUGAUGCAUGAAGAGCCUUGAUCUUUUG | -0.444 |
| GACCAAUCUGCCCUCAGAGCUCGAGAACAUCUUCGGAUGCAGAGGAGGCAGGCUUCGGUGGCGCGAUAGCGCCAACGUCCUCAACCUCCAAUGCAUCCCACCACAUGAUGAUGUCUGAAGAACCUUGGUUUUUUG | -2.83 |
| GACCAAUCUGCCCUCAGAGCUCGAGAACAUCUUCGGAUGCAGAGGAGGCAGGCUUCGGUGGCGCGAUAGCGCCAACGUCCUCAACCUCCAAUGCAUCCCACCACAUGAUGAUGCCUCAAGAGCCUUGGAUUUUUG | -6.61 |
| GACCAAUCUGCCCUCAGAGCUCGAGAACAUCUUCGGAUGCAGAGGAGGCAGGCUUCGGUGGCGCGAUAGCGCCAACGUCCUCAACCUCCAAUGCAUCCCACCACAUGAUGAUGCCUAAAUAGCCUUGGUUUUUUG | -1.9 |
| GACCAAUCUGCCCUCAGAGCUCGAGAACAUCUUCGGAUGCAGAGGAGGCAGGCUUCGGUGGCGCGAUAGCGCCAACGUCCUCAACCUCCAAUGCAUCCCACCACAUGAUGAUGCCCGAAGAGCCUUGGGUUCUUG | -3.87 |
| GACCAAUCUGCCCUCAGAGCUCGAGAACAUCUUCGGAUGCAGAGGAGGCAGGCUUCGGUGGCGCGAUAGCGCCAACGUCCUCAACCUCCAAUGCAUCCCACCACAUGAUGAUGCUUGAACAGCCUUGGUUUUUUG | -0.978 |
| GACCAAUCUGCCCUCAGAGCUCGAGAACAUCUUCGGAUGCAGAGGAGGCAGGCUUCGGUGGCGCGAUAGCGCCAACGUCCUCAACCUCCAAUGCAUCCCACCACAUGAUGAUGUCUGAAGAGCCUUGGCUUUUUG | -3.79 |
| GACCAAUCUGCCCUCAGAGCUCGAGAACAUCUUCGGAUGCAGAGGAGGCAGGCUUCGGUGGCGCGAUAGCGCCAACGUCCUCAACCUCCAAUGCAUCCCACCACAUGAUGAUGCUUGAAGAGCCUUCGUUUUUUG | -2.76 |
| GACCAAUCUGCCCUCAGAGCUCGAGAACAUCUUCGGAUGCAGAGGAGGCAGGCUUCGGUGGCGCGAUAGCGCCAACGUCCUCAACCUCCAAUGCAUCCCACCACAUGAUGAUGCCUAAAGAGCCUUGGUUAUUUG | -1.59 |
| GACCAAUCUGCCCUCAGAGCUCGAGAACAUCUUCGGAUGCAGAGGAGGCAGGCUUCGGUGGCGCGAUAGCGCCAACGUCCUCAACCUCCAAUGCAUCCCACCACAUGAUGAUGCCUGCAGAGCGUUGGUUUUUUG | -0.56 |
| GACCAAUCUGCCCUCAGAGCUCGAGAACAUCUUCGGAUGCAGAGGAGGCAGGCUUCGGUGGCGCGAUAGCGCCAACGUCCUCAACCUCCAAUGCAUCCCACCACAUGAUGAUGCCUAAGGAGCCUUGGUUUUUUG | 1.29 |
| GACCAAUCUGCCCUCAGAGCUCGAGAACAUCUUCGGAUGCAGAGGAGGCAGGCUUCGGUGGCGCGAUAGCGCCAACGUCCUCAACCUCCAAUGCAUCCCACCACAUGAUGAUGCUUGAAGAGCCUUGGAUUUUUG | -3.34 |
| GACCAAUCUGCCCUCAGAGCUCGAGAACAUCUUCGGAUGCAGAGGAGGCAGGCUUCGGUGGCGCGAUAGCGCCAACGUCCUCAACCUCCAAUGCAUCCCACCACAUGAUGAUGCCAGAAGAGCCUUGGAUUUUUG | -4.24 |
| GACCAAUCUGCCCUCAGAGCUCGAGAACAUCUUCGGAUGCAGAGGAGGCAGGCUUCGGUGGCGCGAUAGCGCCAACGUCCUCAACCUCCAAUGCAUCCCACCACAUGAUGAUGCCUAACCAACCUUGGUUUUGUG | -3.42 |
